Test results as given in PMC3362863 (Traffic (Copenhagen, Denmark), 2011).

Target: the molecule itself
Test: cross-linking

B1: P2X4-GFP (receptor, UniProt P51577 1-388, looked up)
chain: MAGCCSVLGSFLFEYDTPRIVLIRSRKVGLMNRAVQLLILAYVIGWVFVWEKGYQETDSVVSSVTTKAKGVAVTNTSQLGFRIWDVADYVIPAQEENSLFIMTNMIVTVNQTQSTCPEIPDKTSICNSDADCTPGSVDTHSSGVATGRCVPFNESVKTCEVAAWCPVENDVGVPTPAFLKAAENFTLLVKNNIWYPKFNFSKRNILPNITTSYLKSCIYNAQTDPFCPIFRLGTIVEDAGHSFQEMAVEGGIMGIQIKWDCNLDRAASLCLPRYSFRRLDTRDLEHNVSPGYNFRFAKYYRDLAGKEQRTLTKAYGIRFDIIVFGKAGKFDIIPTMINVGSGLALLGVATVLCDVIVLYCMKKKYYYRDKKYKYVEDYEQGLSGEMNQ
With B1 as the protein, how does the “stoichiometry N” value read?
Its value is 3.

B2: CHC-TFE3 fusion protein, Flag- or Myc-tagged (other, human, UniProt Q00610 1-932, looked up)
chain: MAQILPIRFQEHLQLQNLGINPANIGFSTLTMESDKFICIREKVGEQAQVVIIDMNDPSNPIRRPISADSAIMNPASKVIALKAGKTLQIFNIEMKSKMKAHTMTDDVTFWKWISLNTVALVTDNAVYHWSMEGESQPVKMFDRHSSLAGCQIINYRTDAKQKWLLLTGISAQQNRVVGAMQLYSVDRKVSQPIEGHAASFAQFKMEGNAEESTLFCFAVRGQAGGKLHIIEVGTPPTGNQPFPKKAVDVFFPPEAQNDFPVAMQISEKHDVVFLITKYGYIHLYDLETGTCIYMNRISGETIFVTAPHEATAGIIGVNRKGQVLSVCVEEENIIPYITNVLQNPDLALRMAVRNNLAGAEELFARKFNALFAQGNYSEAAKVAANAPKGILRTPDTIRRFQSVPAQPGQTSPLLQYFGILLDQGQLNKYESLELCRPVLQQGRKQLLEKWLKEDKLECSEELGDLVKSVDPTLALSVYLRANVPNKVIQCFAETGQVQKIVLYAKKVGYTPDWIFLLRNVMRISPDQGQQFAQMLVQDEEPLADITQIVDVFMEYNLIQQCTAFLLDALKNNRPSEGPLQTRLLEMNLMHAPQVADAILGNQMFTHYDRAHIAQLCEKAGLLQRALEHFTDLYDIKRAVVHTHLLNPEWLVNYFGSLSVEDSLECLRAMLSANIRQNLQICVQVASKYHEQLSTQSLIELFESFKSFEGLFYFLGSIVNFSQDPDVHFKYIQAACKTGQIKEVERICRESNCYDPERVKNFLKEAKLTDQLPLIIVCDRFDFVHDLVLYLYRNNLQKYIEIYVQKVNPSRLPVVIGGLLDVDCSEDVIKNLILVVRGQFSTDELVAEVEKRNRLKLLLPWLEARIHEGCEEPATHNALAKIYIDSNNNPERFLRENPYYDSRVVGKYCEKRDPHLACVAYERGQCDLELINLPVSGNLLDVYSSQGVATPAITVSNSCPAELPNIKREISETEAKALLKERQKKDNHNLIERRRRFNINDRIKELGTLIPKSSDPEMRWNKGTILKASVDYIRKLQKEQQRSKDLESRQRSLEQANRSLQLRIQELELQAQIHGLPVPPTPGLLSLATTSASDSLKPEQLDIEEEGRPGAATFHVGGGPAQNAPHQQPPAPPSDALLDLHFPSDHLGDLGDPFHLGLEDILMEEEEGVVGGLSGGALSPLRAASDPLLSSVSPAVSKASSRRSSFSMEEES
For B2, which “stoichiometry N” value is on record?
Its value is 2.
